These results are taken from article PMC5016554.

For the test, the target named is growth hormone secretagogue receptor (GHSR) (mouse (endogenous in pancreatic delta cells)) (UniProt Q99P50).
Chain of UniProt Q99P50 (Q99P50 whole entry, stated change not applied): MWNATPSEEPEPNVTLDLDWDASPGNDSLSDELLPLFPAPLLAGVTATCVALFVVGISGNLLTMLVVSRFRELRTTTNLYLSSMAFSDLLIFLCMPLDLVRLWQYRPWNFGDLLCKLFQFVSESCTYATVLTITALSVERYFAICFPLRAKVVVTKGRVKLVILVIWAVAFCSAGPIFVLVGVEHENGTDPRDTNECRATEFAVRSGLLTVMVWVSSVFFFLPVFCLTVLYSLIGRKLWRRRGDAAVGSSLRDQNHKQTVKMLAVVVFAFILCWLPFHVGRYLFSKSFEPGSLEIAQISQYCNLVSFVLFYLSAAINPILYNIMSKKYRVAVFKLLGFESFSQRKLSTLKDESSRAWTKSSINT

Mouse ghrelin (peptide) yielded an SST release from perfused mouse pancreas at 12 mmol/l glucose, 1 and 100 nmol/l ghrelin, fold increase of 2.7 fold.
